From article PMC10972748 (2024)
Changes are numbered by the printed parent chain.

B1: His-Halo-tagged cGAS single point mutant of Glu515 (natural protein)
chain: MQPWHGKAMQRASEAGATAPKASARNARGAPMDPTESPAAPEAALPKAGKFGPARKSGSRQKKSAPDTQERPPVRATGARAKKAPQRAQDTQPSDATSAPGAEGLEPPAAREPALSRAGSCRQRGARCSTKPRPPPGPWDVPSPGLPVSAPILVRRDAAPGASKLRAVLEKLKLSRDDISTAAGMVKGVVDHLLLRLKCDSAFRGVGLLNTGSYYEHVKISAPNEFDVMFKLEVPRIQLEEYSNTRAYYFVKFKRNPKENPLSQFLEGEILSASKMLSKFRKIIKEEINDIKDTDVIMKRKRGGSPAVTLLISEKISVDITLALESKSSWPASTQEGLRIQNWLSAKVRKQLRLKPFYLVPKHAKEGNGFQEETWRLSFSHIEKEILNNHGKSKTCCENKEEKCCRKDCLKLMKYLLEQLKERFKDKKHLDKFSSYHVKTAFFHVCTQNPQDSQWDRKDLGLCFDNCVTYFLQCLRTEKLENYFIPEFNLFSSNLIDKRSKEFLTKQIEYERNNAFPVFDEF
B2: His-Halo-tagged cGAS single point mutant of Arg512 (natural protein)
chain: B1 chain with R512A, A515E
B3: His-Halo-tagged cGAS single point mutant of Asp465 (natural protein)
chain: B1 chain with D465A, A515E

Biological target: SPSB3–ELOBC heterotrimeric complex (SPSB3 amino acids 83–326 with elongin B and elongin C) (human | , UniProt Q6PJ21 83-326; Q15370 1-118; Q15369 1-112)
Test: BLI

Binder | Kd
B1 | 453 nM
B2 | 957 nM
B3 | 818 nM
